Results as given in PMC7144582.

Key:
[1] = target: CHIKV nsP3 hypervariable domain (HVD), aa 325-523, with C-terminal Twin-Strep-tag (chikungunya virus (CHIKV) strain 181-25); test: NMR titration
[2] = target: nsP3 Site 1 (Chikungunya virus), Q8JUX6; test: NMR

## CD2AP SH3-A domain (domain or fragment)
[1]
  apparent KD, Site 2: 137 µM

## CD2AP SH3-B domain (domain or fragment)
[1]
  KD, Site 1: 4.5 µM
  apparent KD, Site 2: 75.7 µM

## CD2AP SH3-C domain (domain or fragment)
[1]
  apparent KD, Site 2: 154 µM

B1: CD2AP SH3-C, Q9Y5K6 (protein)
chain: KAKEYCRTLFAYEGTNEDELTFKEGEIIHLISKETGEAGWWRGELNGKEGVFPDNFAVQINE
[2]
  Kd: 51.7 µM

B2: CD2AP SH3-B, Q9Y5K6 (protein)
chain: TKKRQCKVLFEYIPQNEDELELKVGDIIDINEEVEEGWWSGTLNNKLGLFPSNFVKELEV
[2]
  Kd: 4.5 µM
